The results in this text go back to PMC5057043.

Assay [1] has as its target Frizzled-10 (microscale thermophoresis) (UniProt Q9ULW2). The experiment in a line: MST.
In assay [2] the target is Frizzled-7 (microscale thermophoresis) (UniProt O75084). Kind of assay: MST.

Chain of Human OLFM4 protein (Q6UX06 21-510): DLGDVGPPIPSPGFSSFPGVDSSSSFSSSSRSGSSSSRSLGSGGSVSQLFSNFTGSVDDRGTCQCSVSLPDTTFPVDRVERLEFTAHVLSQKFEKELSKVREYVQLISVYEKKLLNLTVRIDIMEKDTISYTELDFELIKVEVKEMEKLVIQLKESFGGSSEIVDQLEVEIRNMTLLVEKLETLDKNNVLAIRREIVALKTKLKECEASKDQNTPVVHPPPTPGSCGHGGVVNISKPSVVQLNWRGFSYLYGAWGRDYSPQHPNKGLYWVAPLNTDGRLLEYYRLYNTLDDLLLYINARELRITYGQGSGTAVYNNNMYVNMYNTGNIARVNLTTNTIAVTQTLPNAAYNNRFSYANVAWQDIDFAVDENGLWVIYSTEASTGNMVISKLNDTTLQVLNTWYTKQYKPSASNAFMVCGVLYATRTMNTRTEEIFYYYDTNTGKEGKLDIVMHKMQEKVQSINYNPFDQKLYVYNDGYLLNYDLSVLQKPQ
Chain of Frizzled-10 (microscale thermophoresis) (Q9ULW2 21-581): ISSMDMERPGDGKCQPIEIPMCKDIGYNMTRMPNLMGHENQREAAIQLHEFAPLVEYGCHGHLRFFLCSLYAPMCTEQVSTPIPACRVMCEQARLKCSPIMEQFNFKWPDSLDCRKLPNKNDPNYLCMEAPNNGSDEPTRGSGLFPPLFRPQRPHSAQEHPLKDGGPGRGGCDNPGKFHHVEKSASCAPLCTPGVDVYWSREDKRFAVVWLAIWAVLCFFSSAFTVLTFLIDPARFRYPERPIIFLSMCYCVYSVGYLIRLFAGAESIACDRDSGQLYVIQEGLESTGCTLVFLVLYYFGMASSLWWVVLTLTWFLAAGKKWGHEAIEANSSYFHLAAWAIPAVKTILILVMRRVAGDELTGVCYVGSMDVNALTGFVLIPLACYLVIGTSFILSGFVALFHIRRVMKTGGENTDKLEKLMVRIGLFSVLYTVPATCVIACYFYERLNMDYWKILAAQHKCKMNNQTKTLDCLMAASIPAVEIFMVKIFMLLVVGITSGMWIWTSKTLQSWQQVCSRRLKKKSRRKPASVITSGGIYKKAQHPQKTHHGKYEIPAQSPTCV

A word on the Kd: it is the concentration at which binding is half-saturated. A low value points to higher affinity. Regarding “Human OLFM4 protein (from UniProt Q6UX06 21-510) (natural protein)”, the values for the dissociation constant Kd in assay [1] and in assay [2] were 10 µM and 2.5 µM, respectively.
